Patent US20130129739A1 (Bayer, published 2013)

T1: extracellular domain of human PRLR (monomeric, soluble) (human, UniProt P16471 25-234)
T1 construct: also called ECD-PRLR; ECD of PRLR
T1 sequence: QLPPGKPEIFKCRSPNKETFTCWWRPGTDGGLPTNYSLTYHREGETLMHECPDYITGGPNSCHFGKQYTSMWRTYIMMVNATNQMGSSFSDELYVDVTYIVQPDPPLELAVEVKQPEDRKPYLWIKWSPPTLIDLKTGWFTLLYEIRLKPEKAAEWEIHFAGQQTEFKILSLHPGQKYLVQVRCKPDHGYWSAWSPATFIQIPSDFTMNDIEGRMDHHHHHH


What follows are binders tested against T1, extracellular domain of human PRLR … (assay: ELISA: plate coated with human PRLR extracellular domain, Fab-containing E. coli supernatant, anti-flag-HRP, Amplex Red).
Experimental: 96 well microtiter plates were coated with 1 μg per milliliter of human PRLR. Plates were incubated over night at 4° C. After blocking with PBS buffer containing 3% bovine serum albumin, normalized E. coli-derived supernatants containing the Fab variants were added. Detection of formed complexes occurred via the addition of an anti-flag antibody (Sigma, A8592) labeled with horseradish peroxidase.

Binder	binding result
005-C04-L2-1-11-0 (Fab, V domains shown, Maturated 005-C04 variant; Fab in E. coli supernatant, flag-detected) VH: EVQLLESGGGLVQPGGSLRLSCAASGFTFSSYWWHWVRQAPGKGLEWVSDMARLSSYTNYADSVKGRFTISRDNSKNTLYLQMNSLRAEDTAVYYCARGLDARRMDYWGQGTLVTVTS VL: QSVLTQPPSASGTPGQRVTISCTGSSSNIGAGYVVHWYQQLPGTAPKLLIYRNNVRQSGVPDRFSGSKSGTSASLAISGLRSEDEADYYCAAWDDSLNGWLFGGGTKLTVLG	binds
005-C04-L2-1-25-5 (Fab, V domains shown, Maturated 005-C04 variant; Fab in E. coli supernatant, flag-detected) VH: EVQLLESGGGLVQPGGSLRLSCAASGFTFSSYWNHWVRQAPGKGLEWVSDMASLSPYTGYADSVKGRFTISRDNSKNTLYLQMNSLRAEDTAVYYCARGLDARRMDYWGQGTLVTVTS VL: QSVLTQPPSASGTPGQRVTISCTGSSSNIGAGYVVHWYQQLPGTAPKLLIYRNNQRQSGVPDRFSGSKSGTSASLAISGLRSEDEADYYCAAWDDSLNGWLFGGGTKLTVLG	binds
005-C04-L2-1-16-4 (Fab, V domains shown, Maturated 005-C04 variant; Fab in E. coli supernatant, flag-detected) VH: EVQLLESGGGLVQPGGSLRLSCAASGFTFSSYWNHWVRQAPGKGLEWVSDMSRLSSYTNYADSVKGRFTISRDNSKNTLYLQMNSLRAEDTAVYYCARGLDARRMDYWGQGTLVTVTS VL: QSVLTQPPSASGTPGQRVTISCTGSSSNIGAGYVVHWYQQLPGTAPKLLIYRNNWRPSGVPDRFSGSKSGTSASLAISGLRSEDEADYYCAAWDDSLNGWLFGGGTKLTVLG	binds
005-C04-L2-1-20-0 (Fab, V domains shown, Maturated 005-C04 variant; Fab in E. coli supernatant, flag-detected) VH: EVQLLESGGGLVQPGGSLRLSCAASGFTFSSYWWHWVRQAPGKGLEWVSDMSRLSSYTNYADSVKGRFTISRDNSKNTLYLQMNSLRAEDTAVYYCARGLDARRMDYWGQGTLVTVTS VL: QSVLTQPPSASGTPGQRVTISCTGSSSNIGAGYVVHWYQQLPGTAPKLLIYRNNVRQSGVPDRFSGSKSGTSASLAISGLRSEDEADYYCAAWDDSLNGWLFGGGTKLTVLG	binds
005-C04-L2-1-21-7 (Fab, V domains shown, Maturated 005-C04 variant; Fab in E. coli supernatant, flag-detected) VH: EVQLLESGGGLVQPGGSLRLSCAASGFTFSSYWWHWVRQAPGKGLEWVSDMSRLSSYTNYADSVKGRFTISRDNSKNTLYLQMNSLRAEDTAVYYCARGLDARRMDYWGQGTLVTVTS VL: QSVLTQPPSASGTPGQRVTISCTGSSSNIGAGYVVHWYQQLPGTAPKLLIYRNNQRQSGVPDRFSGSKSGTSASLAISGLRSEDEADYYCAAWDDSLNGWLFGGGTKLTVLG	binds
005-C04-L2-1-25-4 (Fab, V domains shown, Maturated 005-C04 variant; Fab in E. coli supernatant, flag-detected) VH: EVQLLESGGGLVQPGGSLRLSCAASGFTFSSYWNHWVRQAPGKGLEWVSDISRLSPYTNYADSVKGRFTISRDNSKNTLYLQMNSLRAEDTAVYYCARGLDARRMDYWGQGTLVTVTS VL: QSVLTQPPSASGTPGQRVTISCTGSSSNIGAGYVVHWYQQLPGTAPKLLIYRNNQRQSGVPDRFSGSKSGTSASLAISGLRSEDEADYYCAAWDDSLNGWLFGGGTKLTVLG	binds
005-C04-L2-1-25-7 (Fab, V domains shown, Maturated 005-C04 variant; Fab in E. coli supernatant, flag-detected) VH: EVQLLESGGGLVQPGGSLRLSCAASGFTFSSYWWHWVRQAPGKGLEWVSDIARASSYTNYADSVKGRFTISRDNSKNTLYLQMNSLRAEDTAVYYCARGLDARRMDYWGQGTLVTVTS VL: QSVLTQPPSASGTPGQRVTISCTGSSSNIGYGYVVHWYQQLPGTAPKLLIYRNNWRPSGVPDRFSGSKSGTSASLAISGLRSEDEADYYCAAWDDSLNGWLFGGGTKLTVLG	binds
005-C04-L2-1-11-3 (Fab, V domains shown, Maturated 005-C04 variant; Fab in E. coli supernatant, flag-detected) VH: EVQLLESGGGLVQPGGSLRLSCAASGFTFSSYWNHWVRQAPGKGLEWVSDMSSLSSYTNYADSVKGRFTISRDNSKNTLYLQMNSLRAEDTAVYYCARGLDARRMDYWGQGTLVTVTS VL: QSVLTQPPSASGTPGQRVTISCTGSSSNIGAGYVVHWYQQLPGTAPKLLIYRNNVRPSGVPDRFSGSKSGTSASLAISGLRSEDEADYYCAAWDDSLNGWLFGGGTKLTVLG	binds
005-C04-L2-1-20-1 (Fab, V domains shown, Maturated 005-C04 variant; Fab in E. coli supernatant, flag-detected) VH: EVQLLESGGGLVQPGGSLRLSCAASGFTFSSYWWHWVRQAPGKGLEWVSDIARASSYTNYADSVKGRFTISRDNSKNTLYLQMNSLRAEDTAVYYCARGLDARRMDYWGQGTLVTVTS VL: QSVLTQPPSASGTPGQRVTISCTGSSSNIGYGYVVHWYQQLPGTAPKLLIYRNNWRPSGVPDRFSGSKSGTSASLAISGLRSEDEADYYCAAWDDSLNGWLFGGGTKLTVLG	binds
005-C04-L2-1-40-2 (Fab, V domains shown, Maturated 005-C04 variant; Fab in E. coli supernatant, flag-detected) VH: EVQLLESGGGLVQPGGSLRLSCAASGFTFSSYWNHWVRQAPGKGLEWVSDISRASPYTGYADSVKGRFTISRDNSKNTLYLQMNSLRAEDTAVYYCARGLDARRMDYWGQGTLVTVTS VL: QSVLTQPPSASGTPGQRVTISCTGSSSNIGAGYVVHWYQQLPGTAPKLLIYRNNQRQSGVPDRFSGSKSGTSASLAISGLRSEDEADYYCAAWDDSLNGWLFGGGTKLTVLG	binds
005-C04-L2-1-38-3 (Fab, V domains shown, Maturated 005-C04 variant; Fab in E. coli supernatant, flag-detected) VH: EVQLLESGGGLVQPGGSLRLSCAASGFTFSSYWNHWVRQAPGKGLEWVSDISRLSSYTNYADSVKGRFTISRDNSKNTLYLQMNSLRAEDTAVYYCARGLDARRMDYWGQGTLVTVTS VL: QSVLTQPPSASGTPGQRVTISCTGSSSNIGYGYVVHWYQQLPGTAPKLLIYRNNWRPSGVPDRFSGSKSGTSASLAISGLRSEDEADYYCAAWDDSLNGWLFGGGTKLTVLG	binds
005-C04-L2-1-31-7 (Fab, V domains shown, Maturated 005-C04 variant; Fab in E. coli supernatant, flag-detected) VH: EVQLLESGGGLVQPGGSLRLSCAASGFTFSSYWWHWVRQAPGKGLEWVSDIARLSPYTNYADSVKGRFTISRDNSKNTLYLQMNSLRAEDTAVYYCARGLDARRMDYWGQGTLVTVTS VL: QSVLTQPPSASGTPGQRVTISCTGSSSNIGAGYVVHWYQQLPGTAPKLLIYRNNWRQSGVPDRFSGSKSGTSASLAISGLRSEDEADYYCAAWDDSLNGWLFGGGTKLTVLG	binds
005-C04-L2-1-23-7 (Fab, V domains shown, Maturated 005-C04 variant; Fab in E. coli supernatant, flag-detected) VH: EVQLLESGGGLVQPGGSLRLSCAASGFTFSSYWNHWVRQAPGKGLEWVSDISRASPYTGYADSVKGRFTISRDNSKNTLYLQMNSLRAEDTAVYYCARGLDARRMDYWGQGTLVTVTS VL: QSVLTQPPSASGTPGQRVTISCTGSSSNIGAGYVVHWYQQLPGTAPKLLIYRNNWRPSGVPDRFSGSKSGTSASLAISGLRSEDEADYYCAAWDDSLNGWLFGGGTKLTVLG	binds
005-C04-L2-1-28-7 (Fab, V domains shown, Maturated 005-C04 variant; Fab in E. coli supernatant, flag-detected) VH: EVQLLESGGGLVQPGGSLRLSCAASGFTFSSYWNHWVRQAPGKGLEWVSDMSSLSSYTGYADSVKGRFTISRDNSKNTLYLQMNSLRAEDTAVYYCARGLDARRMDYWGQGTLVTVTS VL: QSVLTQPPSASGTPGQRVTISCTGSSSNIGAGYVVHWYQQLPGTAPKLLIYRNNVRQSGVPDRFSGSKSGTSASLAISGLRSEDEADYYCAAWDDSLNGWLFGGGTKLTVLG	binds
005-C04-L2-1-33-7 (Fab, V domains shown, Maturated 005-C04 variant; Fab in E. coli supernatant, flag-detected) VH: EVQLLESGGGLVQPGGSLRLSCAASGFTFSSYWNHWVRQAPGKGLEWVSDIARLSPYTGYADSVKGRFTISRDNSKNTLYLQMNSLRAEDTAVYYCARGLDARRMDYWGQGTLVTVTS VL: QSVLTQPPSASGTPGQRVTISCTGSSSNIGAGYVVHWYQQLPGTAPKLLIYRNNVRQSGVPDRFSGSKSGTSASLAISGLRSEDEADYYCAAWDDSLNGWLFGGGTKLTVLG	binds
005-C04-L2-1-36-6 (Fab, V domains shown, Maturated 005-C04 variant; Fab in E. coli supernatant, flag-detected) VH: EVQLLESGGGLVQPGGSLRLSCAASGFTFSSYWNHWVRQAPGKGLEWVSDMASLSSYTNYADSVKGRFTISRDNSKNTLYLQMNSLRAEDTAVYYCARGLDARRMDYWGQGTLVTVTS VL: QSVLTQPPSASGTPGQRVTISCTGSSSNIGAGYVVHWYQQLPGTAPKLLIYRNNWRQSGVPDRFSGSKSGTSASLAISGLRSEDEADYYCAAWDDSLNGWLFGGGTKLTVLG	binds
005-C04-L2-1-40-7 (Fab, V domains shown, Maturated 005-C04 variant; Fab in E. coli supernatant, flag-detected) VH: EVQLLESGGGLVQPGGSLRLSCAASGFTFSSYWNHWVRQAPGKGLEWVSDIASASSYTGYADSVKGRFTISRDNSKNTLYLQMNSLRAEDTAVYYCARGLDARRMDYWGQGTLVTVTS VL: QSVLTQPPSASGTPGQRVTISCTGSSSNIGAGYVVHWYQQLPGTAPKLLIYRNNWRQSGVPDRFSGSKSGTSASLAISGLRSEDEADYYCAAWDDSLNGWLFGGGTKLTVLG	binds
005-C04-L2-1-42-0 (Fab, V domains shown, Maturated 005-C04 variant; Fab in E. coli supernatant, flag-detected) VH: EVQLLESGGGLVQPGGSLRLSCAASGFTFSSYWNHWVRQAPGKGLEWVSDIARASSYTGYADSVKGRFTISRDNSKNTLYLQMNSLRAEDTAVYYCARGLDARRMDYWGQGTLVTVTS VL: QSVLTQPPSASGTPGQRVTISCTGSSSNIGAGYVVHWYQQLPGTAPKLLIYRNNWRQSGVPDRFSGSKSGTSASLAISGLRSEDEADYYCAAWDDSLNGWLFGGGTKLTVLG	binds
005-C04-L2-1-12-4 (Fab, V domains shown, Maturated 005-C04 variant; Fab in E. coli supernatant, flag-detected) VH: EVQLLESGGGLVQPGGSLRLSCAASGFTFSSYWNHWVRQAPGKGLEWVSDIARLSSYTNYADSVKGRFTISRDNSKNTLYLQMNSLRAEDTAVYYCARGLDARRMDYWGQGTLVTVTS VL: QSVLTQPPSASGTPGQRVTISCTGSSSNIGAGYVVHWYQQLPGTAPKLLIYRNNWRPSGVPDRFSGSKSGTSASLAISGLRSEDEADYYCAAWDDSLNGWLFGGGTKLTVLG	binds
005-C04-L2-1-25-0 (Fab, V domains shown, Maturated 005-C04 variant; Fab in E. coli supernatant, flag-detected) VH: EVQLLESGGGLVQPGGSLRLSCAASGFTFSSYWWHWVRQAPGKGLEWVSDIARASSYTNYADSVKGRFTISRDNSKNTLYLQMNSLRAEDTAVYYCARGLDARRMDYWGQGTLVTVTS VL: QSVLTQPPSASGTPGQRVTISCTGSSSNIGAGYVVHWYQQLPGTAPKLLIYRNNWRPSGVPDRFSGSKSGTSASLAISGLRSEDEADYYCAAWDDSLNGWLFGGGTKLTVLG	binds
